The record followed here is patent US20020137904A1.

This assay deals with rabbit anti-CS197 peptide antiserum raised against unconjugated peptide SEQUENCE ID NO 19. As to the kind of experiment: Western blot competition; antiserum pre-incubated overnight with peptide immunogen. (A western blot detects proteins with antibodies after separation by electrophoresis.)

The molecule LPGTKAWMETEDTLGRVLSPEPDHDSLYHPPPEED [CS 197 synthetic peptide SEQUENCE ID NO 19] showed a concentration of peptide immunogen that inhibited antibody binding to the blot bands of 2.5 FM.
